B1: library; numbered along this chain (parent)
chain: MRKPRAAVGSGHRKQAASQEGRQKHAKNNSQAKPSACDGLARQPEEVVLQASVSSYHLFRDVAEVTAFRGSLLSWYDQEKRDLPWRRRAEDEMDLDRRAYAVWVSEVMLQQTQVATVINYYTGWMQKWPTLQDLASASLEEVNQLWAGLGYYSRGRRLQEGARKVVEELGGHMPRTAETLQQLLPGVGRYTAGAIASIAFGQATGVVDGNVARVLCRVRAIGADPSSTLVSQQLWGLAQQLVDPARPGDFNQAAMELGATVCTPQRPLCSQCPVESLCRARQRVEQEQLLASGSLSGSPDVEECAPNTGQCHLCLPPSEPWDQTLGVVNFPRKASRKPPREESSATCVLEQPGALGAQILLVQRPNSGLLAGLWEFPSVTWEPSEQLQRKALLQELQRWAGPLPATHLRHLGEVVHTFSHIKLTYQVYGLALEGQTPVTTVPPGARWLTQEEFHTAAVSTAMKKVFRVYQGQQPGTCMGSKRSQVSSPCSRKKPRMGQQVLDNFFRSHISTDAHSLNSAAQ

Variants of: B1
Experiment: 8OG:A repair function score (normalized; synonymous = 0, nonsense = -1) (normalized log-likelihood score); higher = more repair activity (WT-like)
Details: with 8OG:A DNA repair reporter (GFP) in HEK-293 MUTYH KO cells
Protocol: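 Saturation mutagenesis (NNN codon scan) of the MUTYH cDNA (521-aa nuclear isoform NM_001048174.1 / NP_001041639), stably expressed under doxycycline induction in HEK-293 MUTYH knockout cells. Cells were co-transfected with an 8OG:A-bearing GFP repair reporter plus mCherry and sorted 72 h later into GFP+ and GFP− bins, three replicates per tile. The Rosace log2 enrichment (GFP+ vs GFP−) was converted per tile to a normalized function score with synonymous variants centered at 0 and nonsense variants (codons 1-471) at -1; low-abundance variants were removed.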

| Variant | 8OG:A repair function score |
| --- | --- |
| MRKPRAAVGSGHRKQAASQEGRQKHAKNNSQAKPSACDGLARQPEEVVLQASVSSYHLFRDVAEVTAFRGSLLSWYDQEKRDLPWRRRAEDEMDLDRRAYAVWVSEVMLQQTQVATVINYYTGWMQKWPTLQDLASASLEEVNQLWAGLGYYSRGIRLQEGARKVVEELGGHMPRTAETLQQLLPGVGRYTAGAIASIAFGQATGVVDGNVARVLCRVRAIGADPSSTLVSQQLWGLAQQLVDPARPGDFNQAAMELGATVCTPQRPLCSQCPVESLCRARQRVEQEQLLASGSLSGSPDVEECAPNTGQCHLCLPPSEPWDQTLGVVNFPRKASRKPPREESSATCVLEQPGALGAQILLVQRPNSGLLAGLWEFPSVTWEPSEQLQRKALLQELQRWAGPLPATHLRHLGEVVHTFSHIKLTYQVYGLALEGQTPVTTVPPGARWLTQEEFHTAAVSTAMKKVFRVYQGQQPGTCMGSKRSQVSSPCSRKKPRMGQQVLDNFFRSHISTDAHSLNSAAQ [R156I] | -0.152 |
| MRKPRAAVGSGHRKQAASQEGRQKHAKNNSQAKPSACDGLARQPEEVVLQASVSSYHLFRDVAEVTAFRGSLLSWYDQEKRDLPWRRRAEDEMDLDRRAYAVWVSEVMLQQTQVATVINYYTGWMQKWPTLQDLASASLEEVNQLWAGLGYYSRGKRLQEGARKVVEELGGHMPRTAETLQQLLPGVGRYTAGAIASIAFGQATGVVDGNVARVLCRVRAIGADPSSTLVSQQLWGLAQQLVDPARPGDFNQAAMELGATVCTPQRPLCSQCPVESLCRARQRVEQEQLLASGSLSGSPDVEECAPNTGQCHLCLPPSEPWDQTLGVVNFPRKASRKPPREESSATCVLEQPGALGAQILLVQRPNSGLLAGLWEFPSVTWEPSEQLQRKALLQELQRWAGPLPATHLRHLGEVVHTFSHIKLTYQVYGLALEGQTPVTTVPPGARWLTQEEFHTAAVSTAMKKVFRVYQGQQPGTCMGSKRSQVSSPCSRKKPRMGQQVLDNFFRSHISTDAHSLNSAAQ [R156K] | 0.00226 |
| MRKPRAAVGSGHRKQAASQEGRQKHAKNNSQAKPSACDGLARQPEEVVLQASVSSYHLFRDVAEVTAFRGSLLSWYDQEKRDLPWRRRAEDEMDLDRRAYAVWVSEVMLQQTQVATVINYYTGWMQKWPTLQDLASASLEEVNQLWAGLGYYSRGMRLQEGARKVVEELGGHMPRTAETLQQLLPGVGRYTAGAIASIAFGQATGVVDGNVARVLCRVRAIGADPSSTLVSQQLWGLAQQLVDPARPGDFNQAAMELGATVCTPQRPLCSQCPVESLCRARQRVEQEQLLASGSLSGSPDVEECAPNTGQCHLCLPPSEPWDQTLGVVNFPRKASRKPPREESSATCVLEQPGALGAQILLVQRPNSGLLAGLWEFPSVTWEPSEQLQRKALLQELQRWAGPLPATHLRHLGEVVHTFSHIKLTYQVYGLALEGQTPVTTVPPGARWLTQEEFHTAAVSTAMKKVFRVYQGQQPGTCMGSKRSQVSSPCSRKKPRMGQQVLDNFFRSHISTDAHSLNSAAQ [R156M] | -0.207 |
| MRKPRAAVGSGHRKQAASQEGRQKHAKNNSQAKPSACDGLARQPEEVVLQASVSSYHLFRDVAEVTAFRGSLLSWYDQEKRDLPWRRRAEDEMDLDRRAYAVWVSEVMLQQTQVATVINYYTGWMQKWPTLQDLASASLEEVNQLWAGLGYYSRGLRLQEGARKVVEELGGHMPRTAETLQQLLPGVGRYTAGAIASIAFGQATGVVDGNVARVLCRVRAIGADPSSTLVSQQLWGLAQQLVDPARPGDFNQAAMELGATVCTPQRPLCSQCPVESLCRARQRVEQEQLLASGSLSGSPDVEECAPNTGQCHLCLPPSEPWDQTLGVVNFPRKASRKPPREESSATCVLEQPGALGAQILLVQRPNSGLLAGLWEFPSVTWEPSEQLQRKALLQELQRWAGPLPATHLRHLGEVVHTFSHIKLTYQVYGLALEGQTPVTTVPPGARWLTQEEFHTAAVSTAMKKVFRVYQGQQPGTCMGSKRSQVSSPCSRKKPRMGQQVLDNFFRSHISTDAHSLNSAAQ [R156L] | -0.142 |
| MRKPRAAVGSGHRKQAASQEGRQKHAKNNSQAKPSACDGLARQPEEVVLQASVSSYHLFRDVAEVTAFRGSLLSWYDQEKRDLPWRRRAEDEMDLDRRAYAVWVSEVMLQQTQVATVINYYTGWMQKWPTLQDLASASLEEVNQLWAGLGYYSRGNRLQEGARKVVEELGGHMPRTAETLQQLLPGVGRYTAGAIASIAFGQATGVVDGNVARVLCRVRAIGADPSSTLVSQQLWGLAQQLVDPARPGDFNQAAMELGATVCTPQRPLCSQCPVESLCRARQRVEQEQLLASGSLSGSPDVEECAPNTGQCHLCLPPSEPWDQTLGVVNFPRKASRKPPREESSATCVLEQPGALGAQILLVQRPNSGLLAGLWEFPSVTWEPSEQLQRKALLQELQRWAGPLPATHLRHLGEVVHTFSHIKLTYQVYGLALEGQTPVTTVPPGARWLTQEEFHTAAVSTAMKKVFRVYQGQQPGTCMGSKRSQVSSPCSRKKPRMGQQVLDNFFRSHISTDAHSLNSAAQ [R156N] | -0.179 |
| MRKPRAAVGSGHRKQAASQEGRQKHAKNNSQAKPSACDGLARQPEEVVLQASVSSYHLFRDVAEVTAFRGSLLSWYDQEKRDLPWRRRAEDEMDLDRRAYAVWVSEVMLQQTQVATVINYYTGWMQKWPTLQDLASASLEEVNQLWAGLGYYSRGPRLQEGARKVVEELGGHMPRTAETLQQLLPGVGRYTAGAIASIAFGQATGVVDGNVARVLCRVRAIGADPSSTLVSQQLWGLAQQLVDPARPGDFNQAAMELGATVCTPQRPLCSQCPVESLCRARQRVEQEQLLASGSLSGSPDVEECAPNTGQCHLCLPPSEPWDQTLGVVNFPRKASRKPPREESSATCVLEQPGALGAQILLVQRPNSGLLAGLWEFPSVTWEPSEQLQRKALLQELQRWAGPLPATHLRHLGEVVHTFSHIKLTYQVYGLALEGQTPVTTVPPGARWLTQEEFHTAAVSTAMKKVFRVYQGQQPGTCMGSKRSQVSSPCSRKKPRMGQQVLDNFFRSHISTDAHSLNSAAQ [R156P] | -0.341 |
